Tests used:
Assay in all cases: BioID-MS +ONC201
XPNPEP3 (human) = XPNPEP3 (human) (UniProt Q9NQH7)
UQCRB (human) = UQCRB (human) (UniProt P14927)
NARS2 (human) = NARS2 (human) (UniProt Q96I59)
RNMTL1 (human) = RNMTL1 (human) (UniProt Q9HC36)
SDHAF3 (human) = SDHAF3 (human) (UniProt Q9NRP4)
HSPA1L (human) = HSPA1L (human) (UniProt P34931)
FASTKD2 (human) = FASTKD2 (human) (UniProt Q9NYY8)
GBAS (human) = GBAS (human) (UniProt O75323)
COQ8A (human) = COQ8A (human) (UniProt Q8NI60)
T1MM44 (human) = T1MM44 (human) (UniProt O43615)
HSD17B10 (human) = HSD17B10 (human) (UniProt Q99714)
MTPAP (human) = MTPAP (human) (UniProt Q9NVV4)
CPOX (human) = CPOX (human) (UniProt P36551)
COX5B (human) = COX5B (human) (UniProt P10606)
ALDH1L2 (human) = ALDH1L2 (human) (UniProt Q3SY69)
Chain of ALDH1L2 (human) (Q3SY69 whole entry): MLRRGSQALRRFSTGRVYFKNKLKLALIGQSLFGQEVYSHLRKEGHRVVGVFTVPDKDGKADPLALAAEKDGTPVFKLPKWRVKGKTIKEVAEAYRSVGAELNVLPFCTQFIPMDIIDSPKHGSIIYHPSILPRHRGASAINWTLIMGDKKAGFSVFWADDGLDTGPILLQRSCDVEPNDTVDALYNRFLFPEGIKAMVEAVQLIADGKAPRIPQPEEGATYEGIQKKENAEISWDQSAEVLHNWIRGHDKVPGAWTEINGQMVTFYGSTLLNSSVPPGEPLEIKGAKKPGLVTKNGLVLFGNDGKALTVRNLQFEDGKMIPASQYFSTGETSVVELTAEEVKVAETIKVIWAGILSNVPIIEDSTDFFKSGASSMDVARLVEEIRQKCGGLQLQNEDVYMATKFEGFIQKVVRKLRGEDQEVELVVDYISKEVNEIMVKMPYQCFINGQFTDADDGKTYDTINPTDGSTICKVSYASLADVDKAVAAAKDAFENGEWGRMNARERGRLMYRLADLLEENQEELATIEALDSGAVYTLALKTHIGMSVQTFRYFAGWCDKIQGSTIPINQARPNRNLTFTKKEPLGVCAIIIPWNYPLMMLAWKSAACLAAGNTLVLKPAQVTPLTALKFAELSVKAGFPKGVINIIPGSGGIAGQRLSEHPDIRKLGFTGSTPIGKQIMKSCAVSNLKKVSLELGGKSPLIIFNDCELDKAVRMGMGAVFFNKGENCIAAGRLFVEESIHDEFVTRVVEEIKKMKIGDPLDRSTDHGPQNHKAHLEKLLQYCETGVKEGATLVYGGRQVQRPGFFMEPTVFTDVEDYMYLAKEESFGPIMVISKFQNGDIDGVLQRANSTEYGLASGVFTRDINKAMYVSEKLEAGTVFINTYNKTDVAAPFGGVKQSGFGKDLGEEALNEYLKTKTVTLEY

MRPS25 (human) = MRPS25 (human) (UniProt P82663)
IDE (human) = IDE (human) (UniProt P14735)
MRPS23 (human) = MRPS23 (human) (UniProt Q9Y3D9)
THNSL1 (human) = THNSL1 (human) (UniProt Q8IYQ7)
ACADM (human) = ACADM (human) (UniProt P11310)
C7orf55 (human) = C7orf55 (human) (UniProt Q96HJ9)
Chain of C7orf55 (human) (Q96HJ9 whole entry): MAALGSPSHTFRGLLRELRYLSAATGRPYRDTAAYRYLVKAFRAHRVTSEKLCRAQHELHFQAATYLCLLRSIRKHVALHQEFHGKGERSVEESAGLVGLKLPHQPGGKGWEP

ALDH4A1 (human) = ALDH4A1 (human) (UniProt P30038)
NDUFA7 (human) = NDUFA7 (human) (UniProt O95182)
SHMT2 (human) = SHMT2 (human) (UniProt P34897)
MRPL44 (human) = MRPL44 (human) (UniProt Q9H9J2)
MRM3 (human) = MRM3 (human) (UniProt Q9HC36)
HSPE1 (human) = HSPE1 (human) (UniProt P61604)
Chain of HSPE1 (human) (P61604 2-102 limits assumed): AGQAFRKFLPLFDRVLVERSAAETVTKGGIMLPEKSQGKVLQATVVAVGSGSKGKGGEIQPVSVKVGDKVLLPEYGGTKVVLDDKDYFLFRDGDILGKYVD

ATPAF2 (human) = ATPAF2 (human) (UniProt Q8N5M1)
DCAKD (human) = DCAKD (human) (UniProt Q8WVC6)
NDUFA2 (human) = NDUFA2 (human) (UniProt O43678)
Chain of NDUFA2 (human) (O43678 2-99 limits assumed): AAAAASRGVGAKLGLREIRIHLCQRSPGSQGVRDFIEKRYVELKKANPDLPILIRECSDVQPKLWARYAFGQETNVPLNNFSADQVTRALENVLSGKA

LYRM4 (human) = LYRM4 (human) (UniProt Q9HD34)
MRPL48 (human) = MRPL48 (human) (UniProt Q96GC5)
THEM4 (human) = THEM4 (human) (UniProt Q5T1C6)
NADK2 (human) = NADK2 (human) (UniProt Q4G0N4)
PDIA3 (human) = PDIA3 (human) (UniProt P30101)
TBRG4 (human) = TBRG4 (human) (UniProt Q969Z0)
MRPL19 (human) = MRPL19 (human) (UniProt P49406)
NDUFA6 (human) = NDUFA6 (human) (UniProt P56556)
MMAB (human) = MMAB (human) (UniProt Q96EY8)
Chain of MMAB (human) (Q96EY8 33-250 limits assumed): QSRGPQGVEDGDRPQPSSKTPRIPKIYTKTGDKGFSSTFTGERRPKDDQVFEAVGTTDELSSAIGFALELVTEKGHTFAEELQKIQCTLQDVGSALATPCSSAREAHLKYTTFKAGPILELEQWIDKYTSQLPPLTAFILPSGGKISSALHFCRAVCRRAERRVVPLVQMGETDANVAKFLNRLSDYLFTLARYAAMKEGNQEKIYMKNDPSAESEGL

LARS2 (human) = LARS2 (human) (UniProt Q15031)
NDUFAF5 (human) = NDUFAF5 (human) (UniProt Q5TEU4)
NDUFV2 (human) = NDUFV2 (human) (UniProt P19404)
NDUFV3 (human) = NDUFV3 (human) (UniProt P56181)
SUCLA2 (human) = SUCLA2 (human) (UniProt Q9P2R7)
Chain of SUCLA2 (human) (Q9P2R7 53-463 limits assumed): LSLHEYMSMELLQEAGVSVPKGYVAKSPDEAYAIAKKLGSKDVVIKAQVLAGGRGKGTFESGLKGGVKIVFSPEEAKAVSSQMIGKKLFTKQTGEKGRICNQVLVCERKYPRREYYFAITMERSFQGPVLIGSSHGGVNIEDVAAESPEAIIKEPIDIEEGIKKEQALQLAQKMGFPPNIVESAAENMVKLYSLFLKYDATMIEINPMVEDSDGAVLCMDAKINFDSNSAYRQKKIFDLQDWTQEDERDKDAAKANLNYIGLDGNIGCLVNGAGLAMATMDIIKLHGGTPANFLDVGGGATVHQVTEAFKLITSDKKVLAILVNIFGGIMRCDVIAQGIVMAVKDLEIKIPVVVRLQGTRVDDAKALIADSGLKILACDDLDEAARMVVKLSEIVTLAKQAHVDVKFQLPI

PDE12 (human) = PDE12 (human) (UniProt Q6L8Q7)
Chain of PDE12 (human) (Q6L8Q7 43-609 limits assumed): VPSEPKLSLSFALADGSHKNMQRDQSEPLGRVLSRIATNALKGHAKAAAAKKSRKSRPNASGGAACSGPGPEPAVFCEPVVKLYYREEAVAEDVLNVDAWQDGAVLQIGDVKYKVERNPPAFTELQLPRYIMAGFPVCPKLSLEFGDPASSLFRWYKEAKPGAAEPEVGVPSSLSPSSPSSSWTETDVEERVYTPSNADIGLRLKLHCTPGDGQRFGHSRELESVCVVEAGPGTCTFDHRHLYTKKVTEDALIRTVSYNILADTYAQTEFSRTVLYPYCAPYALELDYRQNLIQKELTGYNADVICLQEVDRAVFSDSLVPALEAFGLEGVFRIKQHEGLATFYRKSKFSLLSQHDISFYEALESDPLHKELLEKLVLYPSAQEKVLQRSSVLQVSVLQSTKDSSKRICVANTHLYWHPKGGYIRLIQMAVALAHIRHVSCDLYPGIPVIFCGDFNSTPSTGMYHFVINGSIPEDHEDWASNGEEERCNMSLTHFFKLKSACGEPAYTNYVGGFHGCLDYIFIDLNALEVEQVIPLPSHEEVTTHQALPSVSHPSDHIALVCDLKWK

NIPSNAP2 (human) = NIPSNAP2 (human) (UniProt O75323)
SLIRP (human) = SLIRP (human) (UniProt Q9GZT3)
POLG (human) = POLG (human) (UniProt P54098)
Chain of POLG (human) (P54098 whole entry): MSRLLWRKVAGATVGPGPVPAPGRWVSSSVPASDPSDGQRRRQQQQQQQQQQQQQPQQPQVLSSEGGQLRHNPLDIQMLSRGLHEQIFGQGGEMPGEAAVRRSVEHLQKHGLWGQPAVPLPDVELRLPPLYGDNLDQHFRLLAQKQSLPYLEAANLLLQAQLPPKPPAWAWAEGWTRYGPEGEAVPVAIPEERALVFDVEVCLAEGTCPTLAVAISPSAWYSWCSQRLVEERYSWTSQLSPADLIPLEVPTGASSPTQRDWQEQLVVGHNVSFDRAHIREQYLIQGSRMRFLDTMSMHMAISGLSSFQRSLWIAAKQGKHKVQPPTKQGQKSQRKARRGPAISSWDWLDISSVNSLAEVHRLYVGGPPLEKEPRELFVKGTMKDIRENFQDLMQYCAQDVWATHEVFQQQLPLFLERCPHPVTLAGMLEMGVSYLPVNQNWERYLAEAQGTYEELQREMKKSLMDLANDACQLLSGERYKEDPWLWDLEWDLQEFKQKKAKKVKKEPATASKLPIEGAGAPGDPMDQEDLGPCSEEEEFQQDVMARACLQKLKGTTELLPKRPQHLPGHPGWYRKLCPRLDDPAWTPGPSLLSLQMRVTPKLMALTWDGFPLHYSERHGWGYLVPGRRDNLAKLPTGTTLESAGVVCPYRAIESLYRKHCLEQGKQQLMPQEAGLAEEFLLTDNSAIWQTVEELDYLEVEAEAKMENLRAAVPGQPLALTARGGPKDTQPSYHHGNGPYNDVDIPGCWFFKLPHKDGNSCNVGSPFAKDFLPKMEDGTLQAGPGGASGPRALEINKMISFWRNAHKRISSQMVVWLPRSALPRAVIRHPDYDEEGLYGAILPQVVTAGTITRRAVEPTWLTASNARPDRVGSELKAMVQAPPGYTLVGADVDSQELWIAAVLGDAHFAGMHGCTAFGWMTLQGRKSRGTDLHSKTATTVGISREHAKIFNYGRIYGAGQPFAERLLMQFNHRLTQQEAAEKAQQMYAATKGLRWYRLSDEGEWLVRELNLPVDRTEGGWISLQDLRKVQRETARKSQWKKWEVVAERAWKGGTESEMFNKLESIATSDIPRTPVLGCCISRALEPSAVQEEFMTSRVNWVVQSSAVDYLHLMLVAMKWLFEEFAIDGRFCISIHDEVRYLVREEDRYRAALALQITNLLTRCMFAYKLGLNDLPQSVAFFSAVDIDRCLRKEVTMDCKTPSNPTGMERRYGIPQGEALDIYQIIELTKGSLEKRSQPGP

MRPL45 (human) = MRPL45 (human) (UniProt Q9BRJ2)
MRPL55 (human) = MRPL55 (human) (UniProt Q7Z7F7)
GRSF1 (human) = GRSF1 (human) (UniProt Q12849)

Chain of HSPA1L (human) (P34931 whole entry): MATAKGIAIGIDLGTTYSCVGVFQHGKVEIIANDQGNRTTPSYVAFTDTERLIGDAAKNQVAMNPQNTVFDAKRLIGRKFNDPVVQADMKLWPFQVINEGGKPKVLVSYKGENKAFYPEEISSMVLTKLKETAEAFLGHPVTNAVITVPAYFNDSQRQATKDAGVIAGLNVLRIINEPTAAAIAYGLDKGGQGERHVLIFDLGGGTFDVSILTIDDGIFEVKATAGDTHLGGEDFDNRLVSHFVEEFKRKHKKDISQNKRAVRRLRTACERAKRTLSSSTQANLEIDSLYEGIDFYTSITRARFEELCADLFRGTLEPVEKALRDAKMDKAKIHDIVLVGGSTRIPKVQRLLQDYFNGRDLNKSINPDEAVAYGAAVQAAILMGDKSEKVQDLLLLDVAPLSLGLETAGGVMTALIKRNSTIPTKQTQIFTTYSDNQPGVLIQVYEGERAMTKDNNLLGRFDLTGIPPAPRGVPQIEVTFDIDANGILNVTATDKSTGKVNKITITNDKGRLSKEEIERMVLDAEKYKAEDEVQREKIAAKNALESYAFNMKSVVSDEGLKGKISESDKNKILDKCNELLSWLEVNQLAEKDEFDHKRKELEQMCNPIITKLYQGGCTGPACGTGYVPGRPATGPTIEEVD
Chain of UQCRB (human) (P14927 2-111 limits assumed): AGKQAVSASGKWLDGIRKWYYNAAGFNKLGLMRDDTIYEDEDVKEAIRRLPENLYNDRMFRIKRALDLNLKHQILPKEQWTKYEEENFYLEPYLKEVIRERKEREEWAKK
Chain of COQ8A (human) (Q8NI60 163-647 limits assumed): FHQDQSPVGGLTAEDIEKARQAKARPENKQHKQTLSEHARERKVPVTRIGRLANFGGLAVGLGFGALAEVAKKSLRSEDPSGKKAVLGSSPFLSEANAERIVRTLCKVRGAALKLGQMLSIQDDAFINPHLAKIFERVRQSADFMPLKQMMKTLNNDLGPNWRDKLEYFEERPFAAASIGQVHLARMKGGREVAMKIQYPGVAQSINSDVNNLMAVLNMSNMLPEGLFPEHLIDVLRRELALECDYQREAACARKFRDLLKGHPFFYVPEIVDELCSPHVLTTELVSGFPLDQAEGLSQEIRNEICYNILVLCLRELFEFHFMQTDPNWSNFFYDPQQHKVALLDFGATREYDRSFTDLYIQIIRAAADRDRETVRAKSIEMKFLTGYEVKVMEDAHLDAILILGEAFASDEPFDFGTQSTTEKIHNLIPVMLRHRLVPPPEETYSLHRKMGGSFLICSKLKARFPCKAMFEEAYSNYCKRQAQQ

Log2 Fold change (vs control) (XPNPEP3 (human)): -1.63 log2
Log2 Fold change (vs control) (UQCRB (human)): -4.7 log2
Log2 Fold change (vs control) (NARS2 (human)): -1.36 log2
Log2 Fold change (vs control) (RNMTL1 (human)): 0.05 log2
Log2 Fold change (vs control) (SDHAF3 (human)): -3.82 log2
Log2 Fold change (vs control) (HSPA1L (human)): 0.5 log2
Log2 Fold change (vs control) (FASTKD2 (human)): -0.62 log2
Log2 Fold change (vs control) (GBAS (human)): -2.79 log2
Log2 Fold change (vs control) (COQ8A (human)): -4.74 log2
Log2 Fold change (vs control) (T1MM44 (human)): -0.52 log2
Log2 Fold change (vs control) (HSD17B10 (human)): 0.01 log2
Log2 Fold change (vs control) (MTPAP (human)): -0.1 log2
Log2 Fold change (vs control) (CPOX (human)): -2.12 log2
Log2 Fold change (vs control) (COX5B (human)): -5 log2
Log2 Fold change (vs control) (ALDH1L2 (human)): -6.04 log2
Log2 Fold change (vs control) (MRPS25 (human)): -3.91 log2
Log2 Fold change (vs control) (IDE (human)): -1.97 log2
Log2 Fold change (vs control) (MRPS23 (human)): -1.58 log2
Log2 Fold change (vs control) (THNSL1 (human)): -1.55 log2
Log2 Fold change (vs control) (ACADM (human)): -1.06 log2
Log2 Fold change (vs control) (C7orf55 (human)): -1.18 log2
Log2 Fold change (vs control) (ALDH4A1 (human)): -2.21 log2
Log2 Fold change (vs control) (NDUFA7 (human)): -3.81 log2
Log2 Fold change (vs control) (SHMT2 (human)): -0.51 log2
Log2 Fold change (vs control) (MRPL44 (human)): -5.04 log2
Log2 Fold change (vs control) (MRM3 (human)): -1.62 log2
Log2 Fold change (vs control) (HSPE1 (human)): -0.36 log2
Log2 Fold change (vs control) (ATPAF2 (human)): -2.58 log2
Log2 Fold change (vs control) (DCAKD (human)): -3.75 log2
Log2 Fold change (vs control) (NDUFA2 (human)): -6.32 log2
Log2 Fold change (vs control) (LYRM4 (human)): 0 log2
Log2 Fold change (vs control) (MRPL48 (human)): -4.17 log2
Log2 Fold change (vs control) (THEM4 (human)): -0.88 log2
Log2 Fold change (vs control) (NADK2 (human)): -4.24 log2
Log2 Fold change (vs control) (PDIA3 (human)): 0.03 log2
Log2 Fold change (vs control) (TBRG4 (human)): 0.28 log2
Log2 Fold change (vs control) (MRPL19 (human)): -3.51 log2
Log2 Fold change (vs control) (NDUFA6 (human)): -1.08 log2
Log2 Fold change (vs control) (MMAB (human)): -0.37 log2
Log2 Fold change (vs control) (LARS2 (human)): -0.14 log2
Log2 Fold change (vs control) (NDUFAF5 (human)): -0.68 log2
Log2 Fold change (vs control) (NDUFV2 (human)): -5.96 log2
Log2 Fold change (vs control) (NDUFV3 (human)): -8.18 log2
Log2 Fold change (vs control) (SUCLA2 (human)): -0.71 log2
Log2 Fold change (vs control) (PDE12 (human)): -5.78 log2
Log2 Fold change (vs control) (NIPSNAP2 (human)): -0.31 log2
Log2 Fold change (vs control) (SLIRP (human)): -0.25 log2
Log2 Fold change (vs control) (POLG (human)): -4.32 log2
Log2 Fold change (vs control) (MRPL45 (human)): -6.44 log2
Log2 Fold change (vs control) (MRPL55 (human)): -5.25 log2
Log2 Fold change (vs control) (GRSF1 (human)): -6.34 log2
Substance: FlagBirA-ClpP (WT) (from UniProt P06709 1-321; Q16740 57-277) (enzyme)
